Drawing on patent EP1618130B1, this text covers C50 for one substance.

The assay concerns the target HLA-A2 (human).

As to “HLA-A2 high affinity positive control epitope from HIV-1 pol476-484 ([…]) (peptide)”, the C50 came to 0.2 µM.
